The numbers were not newly measured in US20250009916A1, “COMBINATION THERAPY FOR TREATING LUNG CANCER” (Novartis AG, priority 2021, published 2025), which cites them from elsewhere.

The conditions of data set [1]: cited from earlier work.
For data set [2], the system named is SCLC. The note with it: cited from earlier work.
For data set [3] the following is noted: cited from earlier work. The source holds these as a separate data set.
The test system of data set [4] is advanced solid tumors. The following applies: cited from earlier work.
For data set [5], the system named is ES-SCLC. The note with it: ES-SCLC patients, first-line, IMPower133; cited from earlier work.
The conditions of data set [6]: 100 mCi dose; patients pretreated, with risk factors or abnormal renal and bone marrow function; cited from earlier work.
For data set [7] the following is noted: in vivo; cited from earlier work.
Data set [8] concerns GEP-NET. The note with it: cited from earlier work.
Data set [9] concerns ES-SCLC. The note with it: ES-SCLC patients, durvalumab arm, CASPIAN; cited from earlier work.
Where [10] appears, read: 200-mg fixed dose cohort, evaluable n=13.
Where [11] appears, read: 17 SCLC patients, plus cisplatin/carboplatin and etoposide Q3W.
The mark [12] stands for this setting: 4 doses of 7.4 GBq/200 mCi every 8 weeks, GEP-NET patients.

Read-outs that look alike come from different tables or passages of the source.

“tislelizumab: anti-PD-1 monoclonal antibody (Beigene), heavy chain SEQ ID NO: 1, light chain SEQ ID NO: 5”: the “rates of treatment-related adverse events and serious adverse events across regimens” value in [1] (2 mg/kg and 5 mg/kg, once every 2 weeks and once every 3 weeks) is given as “comparable”. Also, the “treatment-related adverse events versus body-weight-based cohorts” value in [1] (200-mg fixed dose cohort, Phase Ia Part 3) was “no unexpected treatment-related adverse events”. Besides, in [1] (setting [10]), the “patients with BOR of partial response (PR)” value was 23%, the “patients with BOR of progressive disease (PD)” value is 46% and the “patients with BOR of stable disease” value was 31%. In data set [2] (setting [11]), the ORR is listed as 77%, the “median OS” value is reported as 15.6 months and the “median PFS” value is reported as 6.9 months. For the same substance, the antitumor activity result in data set [2] (tislelizumab 200 mg with platinum-based chemotherapy, including SCLC group) is reported as “Encouraging antitumor activity”. The tolerability entry in data set [2] (tislelizumab 200 mg with platinum-based chemotherapy) is “generally well tolerated”. The serum exposure result in data set [3] (200-mg dose) was “fell between serum exposure observed after 2 mg/kg and 5 mg/kg doses”. Besides, the CL result in data set [3] (Phase Ia) was “independent of body weight, ethnicity, and gender”. Further, the “safety signals in combination with standard-of-care chemotherapies” value in data set [4] (first-line lung cancer) was “did not lead to new safety signals”. Besides, the safety profile result in [4] (monotherapy or combined with platinum-based chemotherapy) is on record as “manageable safety profile”.

Consider “atezolizumab: immune checkpoint inhibitor antibody (Roche)”, for which the PFS in data set [5] is given as 5.2 months.

Consider “Lutetium (^177Lu) oxodotreotide [[^177Lu] Lu-DOTA-TATE]”, for which the tolerability result in [6] is listed as “favorable tolerability”. For the same substance, in [7], the elimination route result was “mainly via the renal route”, the “interaction with drug transporters” value is “does not interact with drug transporters” and the metabolization entry is given as “very low (if any)”. In addition, in data set [8] (setting [12]), the “progression free survival and quality of life with approved regimen” value is “significant improvement of progression free survival (PFS) and quality of life”; the “safety of approved regimen” value is given as “safe”. Besides, the median overall survival in [8] (GEP-NET patients, phase 3 NETTER-1) is 48 months. The “safety of additional doses exceeding 800 mCi cumulative dose” value in data set [8] (literature) is “without additional safety signals”.

Take durvalumab: PD-L1 inhibitor: in data set [9], the PFS is given as 5.1 months.
